From paper PMC10926838, “Self-driving laboratories to autonomously navigate the protein fitness landscape” (Nature chemical engineering, 2024)

Legend:
6151 = tested on: T1, 6151; experiment: fluorescence of released 4-methylumbelliferone, Michaelis-Menten fit; format: biochemical, Streptomyces sp.; details: 10 nM enzyme, 0.5% DMSO, 10 mM phosphate pH 7, 50 mM NaCl
T1 construct: gene P6F0-P1F1-P5F2-P1F3; pET-22b, Ni-NTA purified
Excerpt: fluorescence of released 4-methylumbelliferone, Michaelis-Menten fit on 6151 | We also tested the enzymes’ Michaelis–Menten kinetic properties

[1] = substrate: Cc1cc(=O)oc2cc(O[C@@H]3O[C@H](CO)[C@@H](O)[C@H](O)[C@H]3O)ccc12; experiment: as above; format: biochemical, Streptomyces sp. QM-B814; details: 10 nM enzyme, 0.5% DMSO, 10 mM phosphate pH 7, 50 mM NaCl

## Cc1cc(=O)oc2cc(O[C@@H]3O[C@H](CO)[C@@H](O)[C@H](O)[C@H]3O)ccc12 [4-methylumbelliferyl-β-D-glucopyranoside]
6151
  Km: 214 µM

B1: Bgl3 (Streptomyces sp. QM-B814) (protein)
chain: MVPAAQQTATAPDAALTFPEGFLWGSATASYQIEGAAAEDGRTPSIWDTYARTPGRVRNGDTGDVATDHYHRWREDVALMAELGLGAYRFSLAWPRIQPTGRGPALQKGLDFYRRLADELLAKGIQPVATLYHWDLPQELENAGGWPERATAERFAEYAAIAADALGDRVKTWTTLNEPWCSAFLGYGSGVHAPGRTDPVAALRAAHHLNLGHGLAVQALRDRLPADAQCSVTLNIHHVRPLTDSDADADAVRRIDALANRVFTGPMLQGAYPEDLVKDTAGLTDWSFVRDGDLRLAHQKLDFLGVNYYSPTLVSEADGSGTHNSDGHGRSAHSPWPGADRVAFHQPPGETTAMGWAVDPSGLYELLRRLSSDFPALPLVITENGAAFHDYADPEGNVNDPERIAYVRDHLAAVHRAIKDGSDVRGYFLWSLLDNFEWAHGYSKRFGAVYVDYPTGTRIPKASARWYAEVARTGVLPTA
notes: wild-type; pET-22b, E. coli BL21(DE3), Ni-NTA purified
[1]
  Km: 76 µM
  kcat: 10.7 s⁻¹
